# Results reported in the supplement of paper PMC7125110.
# ± gives the standard error. Fewer inactive variants are shown than the library holds.
# B1: glmS ribozyme (parent)
# chain: AUAAAAGCGCCAGAACUACAGAAAUGUAGUUGACGAGGAGGAGGUUUAUCGAAUUUUCGGCGGAUGCCUCCAAA
# Key:
# Conditions in all cases: with glucosamine-6-phosphate
# glucosamine-6-phosphate [1] = variants of: B1; assay: self-cleavage kobs at 160 uM GlcN6P; higher = faster cleavage; RNA array
# Procedure, shortened: (§1)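 kcat and KM were obtained from weighted Michaelis–Menten fits across concentrations of kobs values. Those came from one- or two-exponential decay fits to per-tile medians normalised to baseline and to non-cleaving reference variants. The variants were barcoded ribozymes transcribed in situ by E. coli RNA polymerase on sequenced MiSeq chips and tracked through a hybridised Cy3 probe at 37 °C, with 40 μM to 10 mM glucosamine-6-phosphate in HEPES/KCl/Mg(OAc)2 buffer flowed in.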
# glucosamine-6-phosphate [2] = variants of: B1; assay: self-cleavage kobs at 640 uM GlcN6P; higher = faster cleavage; RNA array
# Procedure, shortened: as §1
# glucosamine-6-phosphate [3] = variants of: B1; assay: self-cleavage kobs at 2500 uM GlcN6P; higher = faster cleavage; RNA array
# Procedure, shortened: as §1
# glucosamine-6-phosphate [4] = variants of: B1; assay: self-cleavage kobs at 10000 uM GlcN6P; higher = faster cleavage; RNA array
# Procedure, shortened: as §1
Variant,self-cleavage kobs at 160 uM GlcN6P (glucosamine-6-phosphate [1]) [s⁻¹],self-cleavage kobs at 640 uM GlcN6P (glucosamine-6-phosphate [2]) [s⁻¹],self-cleavage kobs at 2500 uM GlcN6P (glucosamine-6-phosphate [3]) [s⁻¹],self-cleavage kobs at 10000 uM GlcN6P (glucosamine-6-phosphate [4]) [s⁻¹]
C16U U31C C68U,6.38e-05 ± 2.3e-05,0.000149 ± 3.2e-05,0.00018 ± 4e-05,–
U30G G41C G60A,< 1e-05,–,< 1e-05,–
U30G C71G,6.06e-05 ± 2.9e-05,9.91e-05 ± 2.4e-05,0.000179 ± 4.3e-05,0.000543 ± 0.00012
A15G G63A,< 1e-05,< 1e-05,< 1e-05,< 1e-05
G26A C70A,0.000106 ± 2.6e-05,–,–,–
U30C C50U U56C,< 1e-05,< 1e-05,–,–
C16G A42G G60C C70U,< 1e-05,–,< 1e-05,–
A15C G40A U45A C70G,< 1e-05,< 1e-05,–,–
A23C A52G U69A,6.42e-05 ± 2.4e-05,9.59e-05 ± 2.5e-05,–,–
A15G A33C A64U,< 1e-05,–,< 1e-05,–
A15G U31A G35U C67G,< 1e-05,< 1e-05,< 1e-05,–
U30A U56G,0.000202 ± 6.6e-05,0.00118 ± 0.00024,0.0019 ± 0.00059,–
G29A A36U U55G,< 1e-05,< 1e-05,–,–
U30A U54A C67U C68A,3.56e-05 ± 1.7e-05,–,4.46e-05 ± 2.1e-05,–
G29U A48C G59A,< 1e-05,< 1e-05,< 1e-05,< 1e-05
C16A G59U C68G,0.000107 ± 3e-05,–,–,–
A15G C34U G63A,< 1e-05,–,< 1e-05,–
G29U G32A G37U G66A,< 1e-05,< 1e-05,< 1e-05,–
C16U U65A U69A,3.44e-05 ± 1.7e-05,0.000105 ± 2.4e-05,4.97e-05 ± 1.7e-05,2.63e-05 ± 1.2e-05
A15G U46G G66A C68U,6.94e-05 ± 1.7e-05,0.000307 ± 0.00014,0.00078 ± 0.00029,–
G26U U54A,0.000887 ± 0.00025,0.00635 ± 0.002,0.00265 ± 0.0013,0.0333 ± 0.0093
C16G C67G,0.000347 ± 0.00013,9.56e-05 ± 1.7e-05,8.7e-05 ± 1.4e-05,6.6e-05 ± 7e-06
G29C C61U C71U,< 1e-05,–,–,–
A15U A42U G51A C67U,< 1e-05,< 1e-05,–,< 1e-05
G29C A48C G62U,< 1e-05,< 1e-05,< 1e-05,–
C16U G40A U46C,0.000137 ± 3.1e-05,–,0.000815 ± 0.00018,–

Variant,self-cleavage kobs at 160 uM GlcN6P (glucosamine-6-phosphate [1]) [s⁻¹],self-cleavage kobs at 640 uM GlcN6P (glucosamine-6-phosphate [2]) [s⁻¹],self-cleavage kobs at 2500 uM GlcN6P (glucosamine-6-phosphate [3]) [s⁻¹],self-cleavage kobs at 10000 uM GlcN6P (glucosamine-6-phosphate [4]) [s⁻¹]
U30C U46G U54A,< 1e-05,–,–,–
A15G C16G U55A,0.000205 ± 6e-05,0.000405 ± 0.00011,0.00143 ± 0.0004,–
C16U C34G,< 1e-05,–,–,< 1e-05
G29C G41U G63C C68A,< 1e-05,< 1e-05,< 1e-05,–
U30C G35U G40U A42G U47C,< 1e-05,< 1e-05,–,–
G29A A39U G43U,< 1e-05,–,–,–
G29U U45C U56C,< 1e-05,–,–,–
A15U U30G U46G C67G,5.03e-05 ± 1.7e-05,6.26e-05 ± 1.3e-05,0.000146 ± 2.2e-05,–
A15C C50G,0.000107 ± 3.2e-05,–,0.000205 ± 5.8e-05,–
C16U A64G U65A C70U,8.56e-05 ± 2.7e-05,0.00104 ± 0.00025,0.000964 ± 0.00024,–
G29C C34G U55C,< 1e-05,–,–,–
A15G C16A G60U,< 1e-05,< 1e-05,< 1e-05,–
C16U C50U U69G,7.48e-05 ± 1.8e-05,7.53e-05 ± 1.8e-05,7.21e-05 ± 1.6e-05,–
G29U U30G A39U,8.86e-05 ± 2.1e-05,–,0.0013 ± 0.00029,–
G29A G60A,< 1e-05,< 1e-05,–,–
A15U G60U C61U,< 1e-05,–,–,–
U30A U31C G60A C71A,< 1e-05,–,–,–
U30G C50G C58G G60U C61G,0.000251 ± 7.4e-05,0.00014 ± 2.9e-05,0.00022 ± 6.9e-05,–
G29A A36G C58A,< 1e-05,< 1e-05,< 1e-05,< 1e-05
G29U U49C C50G C70A,5.5e-05 ± 2.2e-05,0.000125 ± 5.5e-05,–,–
C16A G35C U47G,< 1e-05,–,< 1e-05,–
C16U G40C U47G,6.77e-05 ± 2.5e-05,0.000145 ± 2e-05,0.000389 ± 9.2e-05,–
A15G C16A,0.000119 ± 4.3e-05,0.000305 ± 7.7e-05,0.000524 ± 0.00013,–
U30G G63A,< 1e-05,< 1e-05,< 1e-05,< 1e-05
C16U C58G C68G,0.000169 ± 4.4e-05,0.000132 ± 3.4e-05,7.79e-05 ± 1.5e-05,–
A15U C34A A64G,< 1e-05,–,< 1e-05,–

Variant,self-cleavage kobs at 160 uM GlcN6P (glucosamine-6-phosphate [1]) [s⁻¹],self-cleavage kobs at 640 uM GlcN6P (glucosamine-6-phosphate [2]) [s⁻¹],self-cleavage kobs at 2500 uM GlcN6P (glucosamine-6-phosphate [3]) [s⁻¹],self-cleavage kobs at 10000 uM GlcN6P (glucosamine-6-phosphate [4]) [s⁻¹]
G29U U31A U56A C67A,2.97e-05 ± 1.5e-05,–,–,0.00027 ± 5.8e-05
U30G A39U A42U,0.000126 ± 5.7e-05,–,–,–
G29C G32C G37U U45G,< 1e-05,< 1e-05,< 1e-05,–
A15G U31C U45C U49A,< 1e-05,< 1e-05,< 1e-05,–
C16U G32U C70A,< 1e-05,–,–,–
U30A G51U,< 1e-05,< 1e-05,< 1e-05,< 1e-05
G29U G43C U47A G63A,< 1e-05,< 1e-05,< 1e-05,–
U30G G32A G35A C67U,< 1e-05,< 1e-05,–,–
C16A C34G U49A C50A,< 1e-05,–,–,–
A15C C16A C67U,4.39e-05 ± 2.1e-05,0.000115 ± 2.9e-05,0.000111 ± 4e-05,–
A15C A48C,< 1e-05,–,–,4.99e-05 ± 1.2e-05
U30G G32A A48G G62C,< 1e-05,< 1e-05,< 1e-05,–
U30A A39C U55C,4.87e-05 ± 1.3e-05,0.00025 ± 4.5e-05,0.000864 ± 0.00021,–
C16G A48G C68A C71G,5.61e-05 ± 2.2e-05,0.000118 ± 3.8e-05,–,–
G29C A33C C61A,< 1e-05,–,–,–
G29U C34G G38U G44U,< 1e-05,< 1e-05,–,–
U30A A48C C67G,< 1e-05,–,–,–
C16U A52G C71G,0.000103 ± 3.1e-05,5.85e-05 ± 1.3e-05,0.000175 ± 3.2e-05,–
G29A U46A A53U U56C,< 1e-05,< 1e-05,–,–
C16U G37A G40C G43A,< 1e-05,< 1e-05,< 1e-05,< 1e-05
A15C G32C G38U,< 1e-05,–,–,–
A15U G32U G37A G62U,< 1e-05,–,–,–
U30C G35A A39C G40C C68A,< 1e-05,< 1e-05,–,–
U30G G40A,0.000128 ± 3.7e-05,0.000261 ± 6.3e-05,0.000813 ± 0.00013,–
A15U G38C G43C G51U,< 1e-05,< 1e-05,–,< 1e-05
G29A A53U C67A,7.84e-05 ± 1.8e-05,0.00017 ± 4e-05,0.000241 ± 7.1e-05,–

Variant,self-cleavage kobs at 160 uM GlcN6P (glucosamine-6-phosphate [1]) [s⁻¹],self-cleavage kobs at 640 uM GlcN6P (glucosamine-6-phosphate [2]) [s⁻¹],self-cleavage kobs at 2500 uM GlcN6P (glucosamine-6-phosphate [3]) [s⁻¹],self-cleavage kobs at 10000 uM GlcN6P (glucosamine-6-phosphate [4]) [s⁻¹]
C16G G41U U54A,< 1e-05,–,–,–
A15U U55G A64G,0.000233 ± 5.2e-05,–,–,–
G29U A36G A52G,< 1e-05,–,< 1e-05,–
U30C A36G U57C,< 1e-05,< 1e-05,< 1e-05,–
U30C U54G C68A,0.000132 ± 4.9e-05,–,–,–
A15C G29U C67A,9.38e-05 ± 3.4e-05,0.000156 ± 2.9e-05,0.000163 ± 4.2e-05,–
G29C U56G G66C,< 1e-05,< 1e-05,–,–
C16G A52C,< 1e-05,–,< 1e-05,–
U30G C34A,< 1e-05,< 1e-05,< 1e-05,–
A15G G29U C34U,< 1e-05,–,–,–
C16G G43A,< 1e-05,< 1e-05,–,–
C16A U54A C67A,4.32e-05 ± 1.9e-05,6.57e-05 ± 2.8e-05,0.000181 ± 4.8e-05,–
U30A U56C G60U A64C,< 1e-05,< 1e-05,–,–
G29A G35C,< 1e-05,< 1e-05,< 1e-05,< 1e-05
A15C U30A C67A,0.000277 ± 6.8e-05,0.000357 ± 8.3e-05,0.0013 ± 0.0005,–
A15C G32C A48C,< 1e-05,–,–,–
C16U A42G A48U G66U,< 1e-05,< 1e-05,–,–
A15U G37U,< 1e-05,–,–,< 1e-05
A15G G38A G60U C70G,< 1e-05,–,< 1e-05,–
A15G G63A U69G,4.54e-05 ± 2e-05,0.000141 ± 4.8e-05,–,–
C16G A42G A53G C67G,0.000151 ± 3.4e-05,0.000268 ± 5.9e-05,0.000323 ± 8.1e-05,–
U30C G59U,< 1e-05,< 1e-05,< 1e-05,< 1e-05
G29U G60U,< 1e-05,< 1e-05,< 1e-05,< 1e-05
G29U A39G G59U C67U,< 1e-05,< 1e-05,–,–
G29A G41U A53C C58A,< 1e-05,< 1e-05,< 1e-05,–
G29C G35A G59U A64G,< 1e-05,–,–,–
